Read-outs that look alike come from different tables or passages of the source.
T1: activated monomeric CDTb (75 kDa-activated monomer) (Clostridioides difficile)
T1 construct: source: recombinant pro-CDTb trypsinized in vitro, purified (SEC)
T1 chain: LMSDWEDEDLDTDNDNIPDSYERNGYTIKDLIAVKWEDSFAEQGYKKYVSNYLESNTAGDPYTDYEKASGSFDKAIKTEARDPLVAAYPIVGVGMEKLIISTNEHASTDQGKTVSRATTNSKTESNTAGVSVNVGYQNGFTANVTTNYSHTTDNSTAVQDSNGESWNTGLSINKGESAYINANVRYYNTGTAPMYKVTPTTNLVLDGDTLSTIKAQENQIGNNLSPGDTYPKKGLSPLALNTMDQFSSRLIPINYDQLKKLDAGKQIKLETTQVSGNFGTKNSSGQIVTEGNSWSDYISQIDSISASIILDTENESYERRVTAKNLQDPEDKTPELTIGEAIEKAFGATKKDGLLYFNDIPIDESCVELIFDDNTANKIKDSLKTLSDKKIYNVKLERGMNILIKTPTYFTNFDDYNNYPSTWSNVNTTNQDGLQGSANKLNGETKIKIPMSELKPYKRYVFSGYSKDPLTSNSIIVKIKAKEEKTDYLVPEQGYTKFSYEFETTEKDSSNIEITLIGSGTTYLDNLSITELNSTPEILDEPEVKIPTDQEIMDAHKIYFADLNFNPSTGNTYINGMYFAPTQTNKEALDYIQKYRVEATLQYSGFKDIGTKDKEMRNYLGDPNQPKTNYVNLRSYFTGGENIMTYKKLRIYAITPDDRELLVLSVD

T2: CDTb_(D1–D4) monomer (residues 43–876) (Clostridioides difficile, strain not …)
T2 construct: also called full-length (pro) CDTb; pro-CDTb
T2 chain: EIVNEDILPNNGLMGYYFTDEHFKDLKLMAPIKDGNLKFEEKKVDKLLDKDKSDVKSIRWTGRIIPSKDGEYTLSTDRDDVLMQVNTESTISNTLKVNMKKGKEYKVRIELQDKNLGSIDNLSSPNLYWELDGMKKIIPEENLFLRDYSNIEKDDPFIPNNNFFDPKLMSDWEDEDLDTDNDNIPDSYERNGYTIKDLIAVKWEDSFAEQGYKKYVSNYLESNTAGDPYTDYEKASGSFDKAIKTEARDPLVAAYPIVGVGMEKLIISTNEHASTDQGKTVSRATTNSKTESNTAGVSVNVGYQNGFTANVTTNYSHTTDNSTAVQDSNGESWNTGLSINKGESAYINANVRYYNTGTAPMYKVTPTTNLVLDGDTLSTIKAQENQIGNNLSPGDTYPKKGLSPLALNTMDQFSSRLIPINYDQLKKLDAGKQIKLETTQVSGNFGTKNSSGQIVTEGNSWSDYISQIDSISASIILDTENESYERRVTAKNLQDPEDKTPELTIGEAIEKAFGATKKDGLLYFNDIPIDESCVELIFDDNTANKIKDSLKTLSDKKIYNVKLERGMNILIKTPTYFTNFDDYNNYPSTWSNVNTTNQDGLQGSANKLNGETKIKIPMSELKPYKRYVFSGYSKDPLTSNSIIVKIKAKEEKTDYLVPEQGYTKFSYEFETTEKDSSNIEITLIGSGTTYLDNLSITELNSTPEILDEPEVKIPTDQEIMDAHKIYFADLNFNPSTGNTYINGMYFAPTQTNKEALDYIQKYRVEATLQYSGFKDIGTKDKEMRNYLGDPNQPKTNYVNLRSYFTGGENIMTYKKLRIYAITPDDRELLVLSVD

T3: CDTbD3′ (Clostridioides difficile, strain not …)
T3 chain: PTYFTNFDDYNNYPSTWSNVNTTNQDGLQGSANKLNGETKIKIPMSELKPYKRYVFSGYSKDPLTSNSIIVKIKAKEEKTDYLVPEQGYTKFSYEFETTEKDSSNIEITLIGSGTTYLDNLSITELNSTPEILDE

T4: heptameric CDTb (Clostridioides difficile, strain not …)
T4 construct: the ELISA text says only heptameric CDTb; also called CDTb heptamer; CDTb oligomers
T4 chain: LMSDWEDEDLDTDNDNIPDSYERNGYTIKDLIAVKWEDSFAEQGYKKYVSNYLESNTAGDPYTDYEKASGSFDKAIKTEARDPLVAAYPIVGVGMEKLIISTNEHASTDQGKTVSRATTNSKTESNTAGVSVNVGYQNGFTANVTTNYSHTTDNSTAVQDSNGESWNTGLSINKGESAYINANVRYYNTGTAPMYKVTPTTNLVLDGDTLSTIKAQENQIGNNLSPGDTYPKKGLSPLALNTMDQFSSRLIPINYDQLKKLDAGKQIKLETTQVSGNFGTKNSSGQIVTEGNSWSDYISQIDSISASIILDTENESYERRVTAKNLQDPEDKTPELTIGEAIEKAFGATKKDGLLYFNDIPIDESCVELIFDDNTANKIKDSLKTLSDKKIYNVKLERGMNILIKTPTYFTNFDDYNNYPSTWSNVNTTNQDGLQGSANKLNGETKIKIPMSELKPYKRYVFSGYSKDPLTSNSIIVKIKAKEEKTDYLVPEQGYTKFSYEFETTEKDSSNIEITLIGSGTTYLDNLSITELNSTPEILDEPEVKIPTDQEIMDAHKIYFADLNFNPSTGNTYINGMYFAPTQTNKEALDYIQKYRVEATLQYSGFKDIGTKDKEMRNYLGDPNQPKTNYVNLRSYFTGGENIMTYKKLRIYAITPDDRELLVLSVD


Key:
CDTb_(D2–D3′) (210–749) [1] = target: T5, CDTb_(D2–D3′) (210–749) (Clostridioides difficile, strain not …, UniProt O32739); assay: SPR; […] (10 mM HEPES pH 7.4, 150 mM NaCl, 0.05% Tween-20) with 0.5 mg/ml BSA; […]; conditions: both partners purified
[2] = target: T6, native CDTb protein in cecal contents of mice infected with C. difficile R20291 (Clostridioides difficile R20291, UniProt A0A9R0BM17, strain); assay: ELISA; sandwich ELISA on cecal material of mice infected with R20291 (diluted to 10 mg/ml in PBS-T + 2% BSA): native CDTb bound by the coated capture Nb; conditions: one partner purified
T6 construct: CDTb made by C. difficile R20291 during infection of mice; source: endogenous, C. difficile R20291, in cecal material of infected mice

[3] = target: T1, activated monomeric CDTb (75 …); assay: ELISA; sandwich ELISA: nonbiotinylated capture Nb coated (200 ng/well), purified CDTb (activated monomer or heptameric sample) in PBS-T + 2% BSA, biotinylated detection Nb (50 ng/well), streptavidin-HRP; room temperature; conditions: both partners purified
CDTbD4 (760–876) [4] = target: T7, CDTbD4 (760–876) (Clostridioides difficile, strain not …, UniProt O32739); assay: SPR; Carterra LSA^XT, SAHC30M chip, 25 °C; biotinylated Nbs captured at eight densities; CDTb constructs injected at 0.3–300 nM (fourfold dilutions) without regeneration; HBS-T (10 mM HEPES pH 7.4, 150 mM NaCl, 0.05% Tween-20) with 0.5 mg/ml BSA; one-to-one kinetics model; conditions: both partners purified
T7 construct: also called domain 4

[5] = target: T2, CDTb_(D1–D4) monomer (residues 43–876); assay: as above; conditions: both partners purified
CDTbD3′ [6] = target: T3, CDTbD3′; assay: as above; conditions: both partners purified
CDTb_(D2–D3′) (210–749) [7] = target: T5, CDTb_(D2–D3′) (210–749); assay: SPR; […] (10 mM HEPES pH 7.4, 150 mM NaCl, 0.05% Tween-20) with 0.5 mg/ml BSA; […]; conditions: both partners purified; remark: listed apart in the source
[8] = target: T2, CDTb_(D1–D4) monomer (residues 43–876); assay: SPR; Carterra LSA^XT, SAHC30M chip, 25 °C; biotinylated Nbs captured at eight densities; CDTb constructs injected at 0.3–300 nM (fourfold dilutions) without regeneration; HBS-T (10 mM HEPES pH 7.4, 150 mM NaCl, 0.05% Tween-20) with 0.5 mg/ml BSA; one-to-one kinetics model; conditions: both partners purified
CDTbD3′ [9] = target: T3, CDTbD3′; assay: as above; conditions: both partners purified
CDTbD4 (760–876) [10] = target: T7, CDTbD4 (760–876); assay: as above; conditions: both partners purified; remark: listed apart in the source
[11] = target: T1, activated monomeric CDTb (75 …); assay: cell-based or functional assay
[12] = target: T6, native CDTb protein in cecal contents …; assay: ELISA; sandwich ELISA on cecal material of mice infected with R20291: biotinylated detection Nb on the captured native CDTb; conditions: one partner purified
heptameric CDTb = target: T4, heptameric CDTb; assay: ELISA; sandwich ELISA: nonbiotinylated capture Nb coated (200 ng/well), purified CDTb (activated monomer or heptameric sample) in PBS-T + 2% BSA, biotinylated detection Nb (50 ng/well), streptavidin-HRP; room temperature; conditions: both partners purified
[13] = target: T2, CDTb_(D1–D4) monomer (residues 43–876)
CDTbD3′ [14] = target: T3, CDTbD3′

| Binder | Kd (CDTb_(D2–D3′) (210–749) [1]) [nM] | koff (CDTb_(D2–D3′) (210–749) [1]) [s⁻¹] | kon (CDTb_(D2–D3′) (210–749) [1]) [M⁻¹ s⁻¹] | binding result [2] | binding result [3] | binding result (CDTbD4 (760–876) [4]) | Kd [5] [nM] | koff [5] [s⁻¹] | kon [5] [M⁻¹ s⁻¹] | Kd (CDTbD3′ [6]) [nM] | koff (CDTbD3′ [6]) [s⁻¹] | kon (CDTbD3′ [6]) [M⁻¹ s⁻¹] | binding result (CDTb_(D2–D3′) (210–749) [7]) | binding result (CDTbD3′ [9]) | Kd (CDTbD4 (760–876) [10]) [nM] | koff (CDTbD4 (760–876) [10]) [s⁻¹] | kon (CDTbD4 (760–876) [10]) [M⁻¹ s⁻¹] | binding result [12] | other results |
| --- | --- | --- | --- | --- | --- | --- | --- | --- | --- | --- | --- | --- | --- | --- | --- | --- | --- | --- | --- |
| Nb G2 (VHH, also called C1G2; source: Expi293F, transfected, purified from supernatant (TALON resin)) VHH: QVQLQESGGGLVQPGGSLTLSCKASGIVFSTHTLAWYRQAPGKHRNVLAVITSAGIPNYDTDLKGRFTISRDNAKNTVYLQMNSLEPEDTAVYYCNARGPHPTVTGTTANYWGQGTQVTVSS | ≤ 0.022 | ≤ 1e-05 | 480000 | binds | binds | no binding | ≤ 0.029 | ≤ 1e-05 | 380000 | 0.18 | 4.1e-05 | 240000 |  |  |  |  |  |  |  |
| Nb H8 (VHH, also called C1H8; source: Expi293F, transfected, purified from supernatant (TALON resin)) VHH: QVQLQESGGGLVQPGRSLRLSCEASDFSLNTFGAGWFRQVPGKEREGVSCISPSNSSTYYADSVKGRFTISRDNAKNTIYLQMNSLKPEDTGVYFCAARPITSAQALCTLLVSDSFTSWGQGTQVTVSS |  |  |  |  | binds |  | 1.6 | 0.00089 | 560000 |  |  |  | no binding | no binding | 0.63 | 0.00083 | 1.4e+06 |  | Kd [8]: 1.9 nM |
| Nb H12 (VHH, also called C1H12; source: Expi293F, transfected, purified from supernatant (TALON resin)) VHH: QVQLQESGGGLVQPGGSLRLSCAASGDIFSFYTMGWYRQAPGKQRELVATITSPGTTNYADSVKGRFTISRDNAKNMVYLQMTSLKPEDTAVYYCNADRILTTDPQFKYWGQGTQVTVSS |  |  |  |  |  |  | 0.05 | 6.7e-05 | 1.4e+06 |  |  |  | no binding | no binding | 0.042 | 0.00013 | 3.1e+06 | binds | EC50 of neutralization of CDT-induced rounding of Vero-GFP cells (1 nM CDTa + 7 nM activated monomeric CDTb, Nb 0.6–100 nM, 3 h postintoxication) [11]: ~6 nM |
| Nb A9 (VHH, also called C1A9; source: Expi293F, transfected, purified from supernatant (TALON resin)) VHH: QVQLQESGGGLVQPGGSLRLSCTSSTNMLEFTAVAWWRQAPGKQRDLLAVITRAGVPNYADSKGRFAISRDNAKNTVDLLINTLEPDDTAVYTCNARTSGNINYWGQGTQVTVSS | 0.02 | 1.4e-05 | 710000 | binds | binds | no binding | 0.024 | 3.2e-05 | 1e+06 | ≤ 0.031 | ≤ 1e-05 | 330000 |  |  |  |  |  |  | binding result (heptameric CDTb): binds |
| Nb C6 (VHH, also called C1C6; source: Expi293F, transfected, purified from supernatant (TALON resin)) VHH: QVQLQESGGGLVEPGGSLRLSCVASGIVVASSTMSWYRQAPGKQRELVAQIFSGGNTNYRDSVRGRFTISKDNAKNTAYLQMDNLEPDDTAVYYCYARGFWGQGTQVTVSS | 0.035 | 4.4e-05 | 1.3e+06 |  | binds | no binding | 0.018 | 1.4e-05 | 790000 |  |  |  |  | no binding |  |  |  | binds |  |
| C1G1 (VHH) VHH: QVQLQESGGGLVQPGGSLTLSCAASGSIGSGSVMSWYRQAPGKERELVAQESGGRLRSYAKSVMGRFTISRDNSNNTVTLQMNNLKTDDTAIYYCHLVQFSGRYWGHGTQVTGS |  |  |  |  |  |  |  |  |  |  |  |  |  |  |  |  |  |  | binding result [13]: binds; binding result (CDTbD3′ [14]): binds |
